Measured values from patent publication US20260055369A1, “METHOD FOR GENERATING CELLS OF THE T CELL LINEAGE WITH ENGINEERING BROADLY REACTIVE HUMAN NOTCH LIGAND” (H. Lee Moffitt Cancer Center and Research Institute, Inc., priority 2022, published 2026).
Residue numbers refer to the chain shown, from its start.

T1: Notch2 (EGF6-13) (Homo sapiens, UniProt Q04721)
T1 construct: hNotch2 (EGF6-13, residues 221-530); gp67 signal peptide (N); made in house; host or cells: HiFive Trichoplusia ni insect cells (baculovirus)
T1 sequence (Q04721 221-530): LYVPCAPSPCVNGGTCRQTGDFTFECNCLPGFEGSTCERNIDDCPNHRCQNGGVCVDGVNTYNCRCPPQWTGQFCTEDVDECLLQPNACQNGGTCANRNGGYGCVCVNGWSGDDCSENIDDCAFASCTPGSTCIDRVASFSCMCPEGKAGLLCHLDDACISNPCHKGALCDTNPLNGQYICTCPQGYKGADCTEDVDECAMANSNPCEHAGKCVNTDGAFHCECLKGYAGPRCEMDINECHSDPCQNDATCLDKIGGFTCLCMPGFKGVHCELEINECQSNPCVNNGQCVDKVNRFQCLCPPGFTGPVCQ

T2: Notch4 (7-12) (Homo sapiens, UniProt Q99466)
T2 construct: hNotch4 (EGF7-12, residues 276-511); gp67 signal peptide (N); made in house; host or cells: HiFive Trichoplusia ni insect cells (baculovirus)
T2 sequence (Q99466 276-511): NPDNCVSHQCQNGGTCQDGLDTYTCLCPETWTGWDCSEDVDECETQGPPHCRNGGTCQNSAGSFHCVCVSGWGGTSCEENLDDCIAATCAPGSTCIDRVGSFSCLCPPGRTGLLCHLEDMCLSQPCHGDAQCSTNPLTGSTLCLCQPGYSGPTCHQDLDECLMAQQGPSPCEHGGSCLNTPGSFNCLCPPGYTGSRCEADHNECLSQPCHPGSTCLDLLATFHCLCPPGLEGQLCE

B1: Delta^MAX: engineered human DLL4 consensus variant with 10 mutations combining DLL4.v1 and DLL4.v2 mutations; sequence matches SEQ ID NO: 4/10 (protein)
chain: SSVFQLQLQEFINERGVLASGRPCEPGCRTFFRVCLKHFQAVVSPGPCTFGTVSTPVLGTNSFAVRDDSSGGGRNPLQLPLNFTWPGTFSLIIEAWHAPGDDLRPEALPPDALISKFAIQGSLAVGQNWLLDEQTSTLTRLRYSYRVICSDNYYGDNCSRLCKKRNDYFGHYVCQPDGNPSCLPGWTGEYCQQPICLSGCHEQNGYCSKPAECLCRPGWQGRLCNECIPHPGCRHGTCSTPWQCLCDEGWGGLYCDQDLNYCTHHSPCKNGATCRNSGPRSYTCTCRPGYTGVDCELELSECDSNPCRNGGSCKDQEDGYHCLCPPGYYGLHCEHSTLSCADSPCFNGGSCRERNQGANYACECPPNFTGSNCE
B2: WT DLL4: human wild-type Delta-like 4 (N-EGF5, residues 27-400), SEQ ID NO: 1 (protein)
chain: B1 chain with S2G, L81F, F117I, Y168H, P180L, P231N, L245T, Y254F, R275S, P279Q

How the values were obtained:
Notch2 (EGF6-13) = molecular target: T1, Notch2 (EGF6-13); assay: SPR determination of equilibrium dissociation constants; type: binding
Method: (§1) Equilibrium dissociation constants were determined by surface plasmon resonance using a Biacore T200 instrument (GE Healthcare). Approximately 100 resonance units (RU) of biotinylated Notch extracellular fragments (Notch1 (EGF6-13), Notch2 (EGF6-13), Notch3 (EGF5-12), Notch4 (7-12), and mouse Notch1 (EGF6-13)) were immobilized on individual flow cells at 5 μl/min using a streptavidin-coated sensor chip (Series S Sensor chip SA, GE Healthcare). Three-fold serial dilutions of recombinant DLL4 proteins (N-EGF5) starting at 50 μM (WT DLL4), 18 μM (DLL4.v2), and 6 μM (DLL4.v1 and Delta^MAX) were flowed over the chip at 25° C. in SPR buffer (20 mM HEPES pH 7.4, 150 mM NaCl, 1 mM calcium chloride, 0.1% BSA supplemented with 0.005% surfactant P20). Association (“on-rate”) and dissociation (“off-rate”) phases were performed at 10 μl/min for 120 seconds and 300 seconds, respectively. The sensor chip was regenerated after each injection with 30-second washes of 2.25M Magnesium Chloride containing 25% Ethylene Glycol at 50 μL/min. Data collection rate was performed at 10 Hz, and curves were reference-subtracted from a flow cell containing 100 RU of a negative control non-related protein (biotinylated mouse RNF43 PA domain). The maximum RU for each experiment was normalized to a value of 100% and plotted as a function of concentration using Prism 9 software (GraphPad). Steady-state binding and kinetic curves were fitted using the Biacore T200 evaluation software to a 1:1 Langmuir model to determine the KD values.

Notch4 (7-12) = molecular target: T2, Notch4 (7-12); assay: as above; type: binding
Method: as §1

Notch1 = assay: Notch activation with streptavidin-coated polystyrene beads (CHO-K1 N1-Gal4); type: cell-based; settings: 25 μm beads, ratio 1:1 with reporter cells
Method: Biotinylated WT DLL4 or Delta^MAX (26 μg) were coated in 1.33 mg of streptavidin-coated polystyrene beads for 1 hour at 4° C. in DPBS+0.1% BSA. The beads were washed three times with 500 μL of DPBS+0.1% BSA before and after coating. DLL4 pre-coated beads were counted in the microscope and 100 μL containing 30,000 beads combined in ratio 1:1 with 100 μL of α-MEM with CHO-K1 N1-Gal4 reporter cell lines in 96-well tissue culture plates. The plate was incubated for 24 hours at 37° C., 5% CO2, and Notch activation measure by flow cytometry. The data represent Notch activation as a function of mean fluorescent intensity±s.d. of three biological replicates.

CD8+ T cells [1] = assay: Co-culture assay for IFNγ in T cells (K32 aAPCs expressing ligand); type: cell-based, human; settings: 96 h, P=0.047
Method: (§2) Functional assays for human CD8^+ T cells were performed in co-culture with K562 cells expressing human CD32 (K32 cells) generated as described before7. Briefly, cells were γ-irradiated (100Gy) and washed twice with PBS before being loaded with OKT3 (0.0125-0.5 μg/mL, BioXcell) antibody at RT for 10 min. Human CD8^+ T cells were negatively isolated from PBMC and labeled with 5 μM of Cell Trace Violet (Invitrogen) according to manufacturer's specifications. Next, CD8^+ T cells were co-cultured with K32 cells at ratio 1:10 (T cell:K32). The frequency of proliferating T cells was determined after 96 hours by flow cytometry using a CytoFLEX II (Beckman Coulter). Zombie Green (Biolegend) was used for life/dead cell staining to discard dead cells from the analysis. A set of samples were additionally incubated with Golgi stop (BD) at 0.5 μL/well for 5 hours and washed with PBS for detection of intracellular IFNγ using anti-hIFNγ APC antibody (Biolegend). The frequency of IFNγ positive cells was analyzed by flow cytometry (CytoFLEX II, Beckman Coulter). Dead cells were excluded from the analysis by staining with Zombie green (Biolegend). The data represent the mean percentage of proliferating T cells or IFNγ^+ T cells±s.e.m. of four independent biological replicates.

CD8+ T cells [2] = assay: Co-culture assay for T cell proliferation (K32 aAPCs expressing ligand); type: cell-based, human; settings: along the OKT3 concentrations, 96 h, vs K32 lacking DLL4 ligands (mock)
Method: as §2

Chain of Notch1 (P46531 295-488 limits assumed): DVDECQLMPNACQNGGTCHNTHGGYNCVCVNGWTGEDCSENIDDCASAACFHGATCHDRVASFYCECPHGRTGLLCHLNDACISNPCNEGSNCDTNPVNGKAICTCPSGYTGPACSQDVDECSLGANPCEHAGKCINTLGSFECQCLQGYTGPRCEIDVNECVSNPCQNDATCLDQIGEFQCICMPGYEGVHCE

Row | Molecule | enhancement of affinity compared to WT DLL4 (Notch2 (EGF6-13); Notch2) | Kd (Notch2 (EGF6-13); SPR, 25° C., ligand N-EGF5, read-out: dissociation constant (KD)) | enhancement of affinity compared to WT DLL4 (Notch4 (7-12)) | reporter activity vs DLL4 microbeads (Notch1) | increase of IFNγ secretion from CD8+ T cells compared with WT DLL4 (CD8+ T cells [1]) | enhancement of the percentage of proliferating CD8+ T cells (CD8+ T cells [2])
1 | B1 | 670 fold | 0.054 µM | 532 fold | 4.5 fold | 10-15% | –
2 | B2 | – | – | – | – | – | did not show a significant improvement
